Measurements as given in patent US20230250154A1.

How the values were obtained:
ADAMTS4 (human) = ADAMTS4 (human) (UniProt O75173); assay: cell-based or functional assay
ADAMTS5 (human) = ADAMTS5 (human) (UniProt Q9UNA0); assay: cell-based or functional assay
Sequence of ADAMTS5 (human) (Q9UNA0 262-622 limits assumed): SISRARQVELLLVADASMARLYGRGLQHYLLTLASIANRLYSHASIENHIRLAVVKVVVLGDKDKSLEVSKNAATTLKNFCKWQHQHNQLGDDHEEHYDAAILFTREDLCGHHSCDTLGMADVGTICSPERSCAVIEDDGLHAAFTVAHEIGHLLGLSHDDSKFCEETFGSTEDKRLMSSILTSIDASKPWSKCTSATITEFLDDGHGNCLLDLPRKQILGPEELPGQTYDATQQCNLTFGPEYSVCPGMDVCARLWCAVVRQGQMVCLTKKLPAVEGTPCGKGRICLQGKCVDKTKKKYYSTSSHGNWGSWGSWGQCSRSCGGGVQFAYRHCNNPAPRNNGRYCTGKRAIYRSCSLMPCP

Sequence of ADAMTS4 (human) (O75173 213-685 limits assumed): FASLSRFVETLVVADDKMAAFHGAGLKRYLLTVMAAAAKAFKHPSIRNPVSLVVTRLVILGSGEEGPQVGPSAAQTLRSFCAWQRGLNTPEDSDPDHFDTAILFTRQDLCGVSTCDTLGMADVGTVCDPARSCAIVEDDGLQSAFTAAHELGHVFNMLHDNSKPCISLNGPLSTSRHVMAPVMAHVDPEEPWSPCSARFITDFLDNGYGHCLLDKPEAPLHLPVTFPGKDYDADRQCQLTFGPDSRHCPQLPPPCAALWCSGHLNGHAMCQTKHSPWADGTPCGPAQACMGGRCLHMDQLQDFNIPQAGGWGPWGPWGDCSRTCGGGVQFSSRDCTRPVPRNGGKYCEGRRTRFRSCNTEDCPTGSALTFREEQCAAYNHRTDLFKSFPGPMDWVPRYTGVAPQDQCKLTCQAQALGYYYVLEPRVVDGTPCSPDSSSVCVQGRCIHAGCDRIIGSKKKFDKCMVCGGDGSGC

IC50 needed to inhibit cartilage catabolism (ADAMTS4 (human)): 3 µg/mL
IC50, inhibition of cartilage catabolism in bovine cartilage explants (ADAMTS5 (human)): 7000 µg/mL
IC50 needed to inhibit cartilage catabolism (ADAMTS5 (human)): 7 µg/mL
Maximum inhibition of cartilage catabolism in bovine cartilage explants (ADAMTS5 (human)): 90%
Substance: purified human A2M (from UniProt P01023 24-1474)
